T1: peptide GEPGDDAPS (region corresponding to amino acids 757 to 765 of human type 2 collagen) (human)
T1 construct: The immunogen carried an added C-terminal cysteine and was conjugated to KLH
T1 peptide: GEPGDDAPS

T2: peptide GPPGPQG (region corresponding to amino acids 769 to 775 of human type 2 collagen) (human)
T2 construct: The immunogen carried an added N-terminal cysteine and was conjugated to BSA; The DELFIA screen was run as for 6G4
T2 peptide: GPPGPQG

B1: 6G4 antibody (monoclonal antibody produced by hybridoma TAG-6G4) (antibody, IgG1, V domains shown)
VH: EVQLVESGGSLVQPGGSLKLSCAASGFTFNNYGMSWVRQIPDKRLELVATITGNGHSTYYPVSVRGRFTISRDNAKNTLYLQMSSLKSEDTAMYYCVRGYSNFAFWGQGTTLTVSS
VL: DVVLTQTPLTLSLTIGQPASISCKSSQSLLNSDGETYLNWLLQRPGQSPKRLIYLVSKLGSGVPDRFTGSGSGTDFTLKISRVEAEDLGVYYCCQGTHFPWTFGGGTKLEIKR
notes: Mouse monoclonal IgG1 (k), 150 kDa; also called cryptate-labeled 6G4 antibody; FERM ABP-10483
B2: 2E6 antibody (monoclonal antibody produced by hybridoma TAG-2E6) (antibody, V domains shown)
VH: QVTLKESGPGILQPSQTLSLTCSFSGFSLSTYGMGVGWIRQPSGKGLEWLAHIWWNDNKYYNTTLKSRLTISKDTSNKQVFLKIASVDTADTATYYCARIERWDPWFAYWGQGTLVTVSA
VL: DVVMTQTPLSLPVSLGDQASISCRSSQSLVYSNGNTYFHWYLQKPGQSPKLLIYKVSNRFSGVPDRFSGSGSGTDFTLKISRVEAEDLGVYFCSQSTHVPLTFGAGTKLELKR
notes: Mouse monoclonal IgG2b (k), 150 kDa; also called XL665-labeled 2E6 antibody; FERM ABP-10482

How the values were obtained:
[1] = biological target: T1, peptide GEPGDDAPS (region corresponding …); assay: property stated for the prepared monoclonal antibody
[2] = biological target: T2, peptide GPPGPQG (region corresponding …); assay: as above

Row | binding result [1] | binding result [2] | Binder
1 | binds | – | B1
2 | – | binds | B2

Reference: US20090111098A1 (SHIONOGI, published 2009)
